Reference: publication PMC11032491, “A conserved strategy to attack collagen: The activator domain in bacterial collagenases unwinds triple-helical collagen” (Proceedings of the National Academy of Sciences of the …, 2024)

Tests used:
[1] = target: type I gelatin (heat-denatured acid-soluble type I atelocollagen from bovine hides) (bovine) (UniProt P02453); test: ELISA; indirect ELISA; gelatin coated on the plate (5 µg/ml); His-tagged collagenase variant in PBST with 1% BSA, serially diluted 1:3, 140 min at 37 °C; detected with anti-His-HRP; Hill fit; apparent Kd
[2] = target: soluble type I collagen (acid-soluble type I atelocollagen from bovine hides) (bovine) (UniProt P02453); test: ELISA; indirect ELISA; soluble type I collagen coated on the plate (5 µg/ml); His-tagged collagenase variant in PBST with 1% BSA, serially diluted 1:3, 140 min at room temperature (25 °C); detected with anti-His-HRP; Hill fit; apparent Kd
soluble type I collagen (acid-soluble type I atelocollagen from bovine hides) (bovine), sequence (P02453 162-1217, chain 1 of 2): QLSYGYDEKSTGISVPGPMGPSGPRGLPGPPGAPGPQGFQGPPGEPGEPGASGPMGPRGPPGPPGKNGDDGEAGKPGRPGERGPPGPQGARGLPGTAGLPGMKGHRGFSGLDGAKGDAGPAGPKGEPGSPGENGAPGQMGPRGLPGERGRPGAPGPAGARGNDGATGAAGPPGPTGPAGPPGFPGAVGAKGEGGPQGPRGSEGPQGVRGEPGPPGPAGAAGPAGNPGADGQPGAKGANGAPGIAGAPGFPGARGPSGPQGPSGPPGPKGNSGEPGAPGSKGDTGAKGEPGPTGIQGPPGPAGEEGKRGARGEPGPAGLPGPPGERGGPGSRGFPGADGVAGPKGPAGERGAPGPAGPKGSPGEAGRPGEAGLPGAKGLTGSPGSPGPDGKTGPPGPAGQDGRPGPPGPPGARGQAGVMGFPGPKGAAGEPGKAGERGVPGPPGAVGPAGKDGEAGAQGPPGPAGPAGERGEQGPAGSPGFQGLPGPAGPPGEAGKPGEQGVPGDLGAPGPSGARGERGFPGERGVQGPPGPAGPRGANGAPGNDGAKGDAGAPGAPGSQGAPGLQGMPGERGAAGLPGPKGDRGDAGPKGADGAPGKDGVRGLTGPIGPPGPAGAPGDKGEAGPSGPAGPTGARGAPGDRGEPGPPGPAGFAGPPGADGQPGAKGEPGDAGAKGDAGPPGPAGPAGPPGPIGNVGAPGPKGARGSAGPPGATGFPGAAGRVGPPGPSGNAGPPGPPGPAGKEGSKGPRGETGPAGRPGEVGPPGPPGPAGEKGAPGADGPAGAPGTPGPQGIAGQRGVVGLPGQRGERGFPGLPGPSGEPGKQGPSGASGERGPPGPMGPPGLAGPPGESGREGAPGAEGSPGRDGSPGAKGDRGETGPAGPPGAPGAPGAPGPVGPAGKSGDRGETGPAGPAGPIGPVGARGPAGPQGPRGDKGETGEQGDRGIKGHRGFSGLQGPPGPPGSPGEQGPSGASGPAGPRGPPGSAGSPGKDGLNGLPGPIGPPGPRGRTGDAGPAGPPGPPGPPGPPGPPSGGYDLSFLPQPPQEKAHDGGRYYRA
soluble type I collagen (acid-soluble type I atelocollagen from bovine hides) (bovine), sequence (P02465 80-1117, chain 2 of 2, further chain): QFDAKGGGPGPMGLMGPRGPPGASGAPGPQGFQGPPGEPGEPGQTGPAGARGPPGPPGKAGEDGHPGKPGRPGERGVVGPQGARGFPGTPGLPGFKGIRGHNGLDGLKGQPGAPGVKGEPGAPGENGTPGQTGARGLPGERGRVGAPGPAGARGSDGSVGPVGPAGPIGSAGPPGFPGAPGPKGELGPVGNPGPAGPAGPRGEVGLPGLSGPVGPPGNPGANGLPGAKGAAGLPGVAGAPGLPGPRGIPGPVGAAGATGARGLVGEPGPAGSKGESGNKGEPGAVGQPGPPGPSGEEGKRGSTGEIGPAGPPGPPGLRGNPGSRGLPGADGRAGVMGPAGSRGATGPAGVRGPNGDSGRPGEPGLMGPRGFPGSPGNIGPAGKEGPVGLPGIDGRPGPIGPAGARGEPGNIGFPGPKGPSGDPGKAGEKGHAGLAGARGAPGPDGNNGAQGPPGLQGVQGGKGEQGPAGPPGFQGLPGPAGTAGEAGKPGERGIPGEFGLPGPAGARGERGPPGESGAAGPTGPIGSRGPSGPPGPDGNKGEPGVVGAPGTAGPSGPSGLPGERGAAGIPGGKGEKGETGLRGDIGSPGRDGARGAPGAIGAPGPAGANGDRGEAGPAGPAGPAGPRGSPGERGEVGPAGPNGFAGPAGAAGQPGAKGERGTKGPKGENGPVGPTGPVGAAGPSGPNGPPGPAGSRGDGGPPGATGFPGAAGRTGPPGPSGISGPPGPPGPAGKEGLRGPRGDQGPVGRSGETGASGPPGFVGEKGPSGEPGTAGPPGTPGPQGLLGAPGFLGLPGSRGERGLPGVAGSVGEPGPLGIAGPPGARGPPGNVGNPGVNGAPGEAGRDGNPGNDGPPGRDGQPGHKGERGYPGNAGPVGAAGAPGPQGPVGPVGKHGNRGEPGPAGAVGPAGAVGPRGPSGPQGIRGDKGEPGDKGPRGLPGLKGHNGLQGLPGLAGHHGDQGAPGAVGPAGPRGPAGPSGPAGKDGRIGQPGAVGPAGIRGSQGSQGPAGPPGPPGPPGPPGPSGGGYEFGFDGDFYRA

type I gelatin (heat-denatured acid-soluble type I atelocollagen from bovine hides) (bovine), sequence (P02453 23-1217, chain 1 of 2): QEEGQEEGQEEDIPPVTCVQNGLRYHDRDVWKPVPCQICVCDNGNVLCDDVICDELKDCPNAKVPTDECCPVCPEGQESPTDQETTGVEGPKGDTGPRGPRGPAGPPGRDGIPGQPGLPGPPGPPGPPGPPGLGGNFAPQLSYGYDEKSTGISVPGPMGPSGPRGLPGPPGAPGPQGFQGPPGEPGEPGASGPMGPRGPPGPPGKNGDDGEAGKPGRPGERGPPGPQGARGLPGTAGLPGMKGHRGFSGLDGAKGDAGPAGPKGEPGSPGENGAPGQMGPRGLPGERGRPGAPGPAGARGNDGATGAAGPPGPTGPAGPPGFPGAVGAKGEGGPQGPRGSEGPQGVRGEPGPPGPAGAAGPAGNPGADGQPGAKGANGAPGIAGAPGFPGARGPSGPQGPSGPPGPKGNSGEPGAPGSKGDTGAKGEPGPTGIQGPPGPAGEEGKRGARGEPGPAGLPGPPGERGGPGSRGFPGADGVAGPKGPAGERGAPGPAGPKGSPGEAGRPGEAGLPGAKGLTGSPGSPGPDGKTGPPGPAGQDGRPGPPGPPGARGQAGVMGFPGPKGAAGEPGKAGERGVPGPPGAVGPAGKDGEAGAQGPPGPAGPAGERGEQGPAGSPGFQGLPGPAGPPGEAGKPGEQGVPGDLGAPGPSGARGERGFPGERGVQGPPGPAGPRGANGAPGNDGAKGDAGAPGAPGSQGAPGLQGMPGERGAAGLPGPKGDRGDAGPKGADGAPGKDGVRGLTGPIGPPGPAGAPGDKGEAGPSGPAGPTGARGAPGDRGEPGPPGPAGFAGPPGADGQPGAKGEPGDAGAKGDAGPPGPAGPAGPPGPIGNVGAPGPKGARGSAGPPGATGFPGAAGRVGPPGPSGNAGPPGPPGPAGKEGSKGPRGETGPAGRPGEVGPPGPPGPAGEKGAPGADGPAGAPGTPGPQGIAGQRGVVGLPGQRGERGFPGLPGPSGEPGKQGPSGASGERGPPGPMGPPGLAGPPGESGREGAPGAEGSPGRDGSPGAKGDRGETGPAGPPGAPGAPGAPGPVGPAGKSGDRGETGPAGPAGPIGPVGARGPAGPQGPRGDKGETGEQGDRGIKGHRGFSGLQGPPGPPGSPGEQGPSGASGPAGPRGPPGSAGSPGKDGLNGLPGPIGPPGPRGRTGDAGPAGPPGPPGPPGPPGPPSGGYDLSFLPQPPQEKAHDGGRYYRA
type I gelatin (heat-denatured acid-soluble type I atelocollagen from bovine hides) (bovine), sequence (P02465 80-1117, chain 2 of 2, further chain): as the sequence (P02465 80-1117, chain 2 of 2, further chain) above

| Substance | Kd [1] | Kd [2] |
| --- | --- | --- |
| ColQ1-CU G472V E166A (from UniProt B9J3S4 94-965) (domain or fragment) | 5 µM | – |
| ColQ1-CU G472V F123A (from UniProt B9J3S4 94-965) (domain or fragment) | 1.6 µM | – |
| ColQ1-CU G472V F176A (from UniProt B9J3S4 94-965) (domain or fragment) | 1.2 µM | 0.08 µM |
| ColQ1-CU G472V N317A (control mutant) (from UniProt B9J3S4 94-965) (domain or fragment) | 2.3 µM | 2.8 µM |
| ColQ1-CU G472V R169A (from UniProt B9J3S4 94-965) (domain or fragment) | 2.8 µM | 0.17 µM |
| ColQ1-CU G472V Y173A (from UniProt B9J3S4 94-965) (domain or fragment) | 24 µM | – |
| ColQ1-CU G472V Y251A (control mutant) (from UniProt B9J3S4 94-965) (domain or fragment) | 2.5 µM | 2.8 µM |
| ColQ1-CU G472V Y270A (from UniProt B9J3S4 94-965) (domain or fragment) | 4.2 µM | 0.19 µM |
| ColQ1-CU G472V Y321A (control mutant) (from UniProt B9J3S4 94-965) (domain or fragment) | 2.5 µM | 4 µM |
